This note sets out measurements from the nanobody polyreactivity screen of Harvey et al. (2022).

The series in a line: yeast display, Sf9 membrane polyspecificity reagent, FACS + sequencing; frameworks hold sequencing errors. The procedure, abridged: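 After 36–48 hours of galactose induction, yeast (Saccharomyces cerevisiae BJ5465) displaying a synthetic nanobody library were stained at 4 °C for 1 hour with 10% biotinylated, detergent-solubilized Sf9 membrane reagent. Streptavidin microbeads enriched the stained cells before FACS sorting into low and high (top ~1%) gates on anti-HA and streptavidin fluorescence. Each clone's polyreactivity label reflects its gate of origin.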
Take “QVQLVESGGGLVQAGGSLRLSCAASGSIFGYAMGWYRQAPGKERELVAAISFSGVSTYYADSVKGRFTISRDNAKNTVYLQMNSLKPEDTAVYYCNAYSDGDEDYWGQGTQVTVSS”: the “polyreactivity (PSR sort gate)” value is “low polyreactivity”.

In the case of “QVQLVESGGGLVQAGGSLRLSCAASGRTSVRNAMGWYRQAPGKERELVAAISNGGRTNYADSVKGRFTISRDNAKNTVYLQMNSLKPEDTAVYYCAARGFWLYYHGGVRSGYDYWGQGTQVTVSS”, the “polyreactivity (PSR sort gate)” value is listed as “high polyreactivity”. As for “QVQLVESGGGLVQAGGSLRLSCAASGSILYSYTMGWYRQAPGKERELVAAINRGGRTNYADSVKGRFTISRDNAKNTVYLQMNSLKPEDTAVYYCNTGIYAWSWRRAMDYWGQGTQVTVSS”, the entry is “high polyreactivity”; as for “QVQLVESGGGLVQAGGSLRLSCAASGSTFPKYGMGWYRQAPGKEREFVARINWNGGGTYYADSVKGRFTISRDYAKNTVYLQMNSLKPEDTAVYYCNARKRGARFILGYDYWGQGTQVTVSS”, “low polyreactivity”; as for “QVQLVETGGGLVQAGCSLRLSCAASGSIFSYYAMGWSRQAPGKERELVAGITGSGGSTYADSVKGRFTISRDNAKNTVYLQMNSLKPEDTAVYYCAADLQRYWWWYEYWGQGTQVTVSS”, “high polyreactivity”. On to “QVQLVESGGGLVQAGGSLRLSCAASGFTFRTYAMGWYRQAPGKERELVAAITRNGGTYYADSVKGRFTISRDNAKNTVYLQMHSLNPEDTAVYYCATDPAYWGDQPPEYDYWGQGTQVTVSS”, for which the “polyreactivity (PSR sort gate)” value was “low polyreactivity”. For “HVQLVESGGGLVQAGGSLRLSCAASGFTFNYNALGGYRQAPGKERELVAAIRRSGGSTYYADSVKGRFTISRDNAKNTVYLQMNSLKPEDTAVYYGAARQSFLYGDWGQGTQVTVSS”, the “polyreactivity (PSR sort gate)” value is “high polyreactivity”. The result for “QVQLVESGGGLVQAGGSLRLSCAASGSIFTGYAMGWYRQAPGKERELVAAITYGSGRTYYADSVKGRFTISRDNAKNTVYLQMNSLKPEDTAVYYCAAKWSPYYYYIGYDYWGQGTQVTVSS” reads “low polyreactivity”; that for “QVQLVESGGGLVQAGGSLRLSCAASGYIFYDNAMGWYRQAPGKERELVAAISASGGDTYYADSVKGRFTISRDNAKNTVYLQMNSLKPEDTAVYYCAADLITYAMEFWGQGTQVTVSS”, “low polyreactivity”. The result for “QVQLVETGGGLVQAGGSHRLSCAASGSTFDAYAMGWYRQAPGKETELVAGISIVGSTNYADSVKGRFTISRDNAKNTVYLKMNSLKPEDTAVLYCAADRDWQYSFRPSVYGYDYVYWGQGTQVTVSS” reads “low polyreactivity”; that for “QVQLVESGGGLVQAGGSLRLSCAASGFTFFYYAMGWYRQAPGKERELVARISSSGGRTYYADSVKGRFTISRDNAKNTVYLQMNSLKPEDTAVYYCNARYYYYYTRYDYWGQGTQVTVSS”, “high polyreactivity”; that for “QVQLVESGGGLVQAGGSLRLSCAASGSIFYRYAMGWYRQAPGKERELVATISLSGGSTYADSVKGRFTISRDNAKNTVYLQMNSLKPEDTAVYYCAAGGQYYIIRYDYWGQGTQVTVSS”, “low polyreactivity”.

“QVQLVESGGGLVQAGGSLRLSCAASGLIFRYYAMGWYSQAPGKEREFVAAISGPGASTYYADSVKGRFTISRDNAKNTVYLQMNSLKPEDTAVYYCNTLLTYGYDYWGQGTQVTVSS”: the “polyreactivity (PSR sort gate)” value was “high polyreactivity”. As for “QVQLVESGGGLVQAGGSLRLSCASSGSTLRWYAMGWYRQAPGKERELVARISWTTGSTYYADSVKGRFTISRDNAKNTVYLQMNSLKPEDTAVYYCAKGKKSSRSGIYNYWGQGTQVTVSS”, the entry is “high polyreactivity”. The result for “QVQLVESGGGLVQAGGSLRLSCAASGRTFKPYTMGWYRQAPGKERELVATISTGTTSTYYADSVKGRFTISRDNAKNTVYLQMNSLKPEDTAVYYCAADSDSPVTYQSEDALEYWGQGTQVTVSS” reads “low polyreactivity”.

For “QVQLVESGGGLVQAGGRLRLSCAASGRIFYTNYMGWYRHAPGKERELVAAIRSVSTYYADSVKGRFTISRDNAKNTVYLHMNSLNPEDTAVYYCNALRTNRYDYWGQGTQVTVSS”, the “polyreactivity (PSR sort gate)” value is listed as “high polyreactivity”.
